In IntAct's records for PubMed 17035250:

B1: Fibulin-5 (Homo sapiens), Q9UBX5 (parent)
chain: MPGIKRILTVTILALCLPSPGNAQAQCTNGFDLDRQSGQCLDIDECRTIPEACRGDMMCVNQNGGYLCIPRTNPVYRGPYSNPYSTPYSGPYPAAAPPLSAPNYPTISRPLICRFGYQMDESNQCVDVDECATDSHQCNPTQICINTEGGYTCSCTDGYWLLEGQCLDIDECRYGYCQQLCANVPGSYSCTCNPGFTLNEDGRSCQDVNECATENPCVQTCVNTYGSFICRCDPGYELEEDGVHCSDMDECSFSEFLCQHECVNQPGTYFCSCPPGYILLDDNRSCQDINECEHRNHTCNLQQTCYNLQGGFKCIDPIRCEEPYLRISDNRCMCPAENPGCRDQPFTILYRDMDVVSGRSVPADIFQMQATTRYPGAYYIFQIKSGNEGREFYMRQTGPISATLVMTRPIKGPREIQLDLEMITVNTVINFRGSSVIRLRIYVSQYPF

Variants of: B1
Conditions: with eln_bovin ELN

| Variant | effect of a mutation on the interaction |
| --- | --- |
| C217R | decreasing interaction strength |
| S227P | decreasing interaction strength |
